Test results: the supplement of paper PMC10065799, “High-throughput profiling of sequence recognition by tyrosine kinases and SH2 domains using bacterial peptide display” (eLife, 2023)

Legend:
AncSZ = assay: phosphorylation enrichment, bacterial display (enrichment ratio); higher = better substrate or ligand; peptides without Tyr show the background
EPHB1 = EPHB1 (UniProt P54762); assay: as above
EPHB2 = EPHB2 (UniProt P29323); assay: as above
FGFR1 = FGFR1 (UniProt P11362); assay: as above
FGFR3 = FGFR3 (UniProt P22607); assay: as above
Fer (mouse) = assay: as above
Fes = Fes (UniProt P07332); assay: as above
Fyn = Fyn (UniProt P06241); assay: as above
Hck = Hck (UniProt P08631); assay: as above
Jak2 = Jak2 (UniProt O60674); assay: as above
MERTK = MERTK (UniProt Q12866); assay: as above
c-Abl (mouse) = assay: as above
c-Src = assay: as above
Grb2 SH2 = Grb2 SH2 (UniProt P62993); assay: SH2 binding enrichment of the phosphorylated peptide, bacterial display (enrichment ratio); higher = better substrate or ligand; peptides without Tyr show the background
SHP2-C SH2 = assay: as above
c-Src SH2 = assay: as above
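Wherever SH2 binding enrichment of the phosphorylated peptide, bacterial display is given: peptide library displayed on the E. coli surface as eCPX fusions, selected cells deep-sequenced, score is each peptide's frequency after selection divided by its frequency in the input.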
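Wherever phosphorylation enrichment, bacterial display is given: 11-residue human phosphosite peptides and single-mutation variants displayed on the E. coli surface, counted by deep sequencing, each peptide's frequency after selection divided by its frequency in the unselected input library; frequency after pTyr selection over input frequency; kinase dosed for 20-30% of maximal phosphorylation in three min.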

Fyn, sequence (P06241 whole entry, looked up): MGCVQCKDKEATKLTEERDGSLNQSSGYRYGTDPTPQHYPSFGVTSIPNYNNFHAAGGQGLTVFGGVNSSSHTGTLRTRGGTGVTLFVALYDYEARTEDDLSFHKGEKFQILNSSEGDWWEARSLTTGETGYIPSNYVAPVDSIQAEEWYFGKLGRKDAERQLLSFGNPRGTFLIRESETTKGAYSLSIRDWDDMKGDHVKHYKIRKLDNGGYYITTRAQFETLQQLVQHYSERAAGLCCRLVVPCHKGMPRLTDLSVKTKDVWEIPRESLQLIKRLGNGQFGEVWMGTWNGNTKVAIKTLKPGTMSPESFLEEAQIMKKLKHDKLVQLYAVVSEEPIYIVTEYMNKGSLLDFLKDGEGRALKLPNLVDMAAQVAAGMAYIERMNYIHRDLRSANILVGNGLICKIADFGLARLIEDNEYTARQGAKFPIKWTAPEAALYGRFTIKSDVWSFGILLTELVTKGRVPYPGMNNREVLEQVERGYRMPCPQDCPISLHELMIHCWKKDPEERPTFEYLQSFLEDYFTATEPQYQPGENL
Jak2, sequence (O60674 whole entry, looked up): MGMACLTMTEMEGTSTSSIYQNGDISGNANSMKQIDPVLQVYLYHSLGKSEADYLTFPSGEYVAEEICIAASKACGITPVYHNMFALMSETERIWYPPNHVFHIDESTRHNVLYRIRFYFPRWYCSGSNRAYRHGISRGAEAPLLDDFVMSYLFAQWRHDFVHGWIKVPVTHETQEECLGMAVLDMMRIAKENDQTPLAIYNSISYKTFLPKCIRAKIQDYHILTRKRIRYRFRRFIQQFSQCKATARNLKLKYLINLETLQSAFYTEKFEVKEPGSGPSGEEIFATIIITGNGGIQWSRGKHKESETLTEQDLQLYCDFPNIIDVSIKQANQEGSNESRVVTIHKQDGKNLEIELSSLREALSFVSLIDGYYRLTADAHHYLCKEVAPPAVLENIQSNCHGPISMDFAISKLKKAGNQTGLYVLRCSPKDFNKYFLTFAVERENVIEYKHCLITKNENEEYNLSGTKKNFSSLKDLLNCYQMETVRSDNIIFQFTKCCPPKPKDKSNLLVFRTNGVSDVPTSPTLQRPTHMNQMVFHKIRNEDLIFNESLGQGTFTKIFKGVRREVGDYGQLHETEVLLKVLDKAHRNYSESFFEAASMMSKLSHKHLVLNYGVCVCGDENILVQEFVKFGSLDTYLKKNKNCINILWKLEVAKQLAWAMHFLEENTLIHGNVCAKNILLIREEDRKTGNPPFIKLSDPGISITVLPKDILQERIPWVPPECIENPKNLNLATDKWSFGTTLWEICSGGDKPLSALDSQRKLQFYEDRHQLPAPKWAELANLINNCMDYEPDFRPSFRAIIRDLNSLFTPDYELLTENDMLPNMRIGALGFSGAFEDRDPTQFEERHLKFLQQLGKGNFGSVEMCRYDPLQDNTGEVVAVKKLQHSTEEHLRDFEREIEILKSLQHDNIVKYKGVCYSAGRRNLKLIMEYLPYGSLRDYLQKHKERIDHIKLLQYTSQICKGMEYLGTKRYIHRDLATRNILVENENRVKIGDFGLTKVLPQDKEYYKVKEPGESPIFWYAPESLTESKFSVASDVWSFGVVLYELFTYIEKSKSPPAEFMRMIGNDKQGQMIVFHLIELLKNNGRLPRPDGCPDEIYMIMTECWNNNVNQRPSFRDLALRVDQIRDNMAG
EPHB2, sequence (P29323 whole entry, looked up): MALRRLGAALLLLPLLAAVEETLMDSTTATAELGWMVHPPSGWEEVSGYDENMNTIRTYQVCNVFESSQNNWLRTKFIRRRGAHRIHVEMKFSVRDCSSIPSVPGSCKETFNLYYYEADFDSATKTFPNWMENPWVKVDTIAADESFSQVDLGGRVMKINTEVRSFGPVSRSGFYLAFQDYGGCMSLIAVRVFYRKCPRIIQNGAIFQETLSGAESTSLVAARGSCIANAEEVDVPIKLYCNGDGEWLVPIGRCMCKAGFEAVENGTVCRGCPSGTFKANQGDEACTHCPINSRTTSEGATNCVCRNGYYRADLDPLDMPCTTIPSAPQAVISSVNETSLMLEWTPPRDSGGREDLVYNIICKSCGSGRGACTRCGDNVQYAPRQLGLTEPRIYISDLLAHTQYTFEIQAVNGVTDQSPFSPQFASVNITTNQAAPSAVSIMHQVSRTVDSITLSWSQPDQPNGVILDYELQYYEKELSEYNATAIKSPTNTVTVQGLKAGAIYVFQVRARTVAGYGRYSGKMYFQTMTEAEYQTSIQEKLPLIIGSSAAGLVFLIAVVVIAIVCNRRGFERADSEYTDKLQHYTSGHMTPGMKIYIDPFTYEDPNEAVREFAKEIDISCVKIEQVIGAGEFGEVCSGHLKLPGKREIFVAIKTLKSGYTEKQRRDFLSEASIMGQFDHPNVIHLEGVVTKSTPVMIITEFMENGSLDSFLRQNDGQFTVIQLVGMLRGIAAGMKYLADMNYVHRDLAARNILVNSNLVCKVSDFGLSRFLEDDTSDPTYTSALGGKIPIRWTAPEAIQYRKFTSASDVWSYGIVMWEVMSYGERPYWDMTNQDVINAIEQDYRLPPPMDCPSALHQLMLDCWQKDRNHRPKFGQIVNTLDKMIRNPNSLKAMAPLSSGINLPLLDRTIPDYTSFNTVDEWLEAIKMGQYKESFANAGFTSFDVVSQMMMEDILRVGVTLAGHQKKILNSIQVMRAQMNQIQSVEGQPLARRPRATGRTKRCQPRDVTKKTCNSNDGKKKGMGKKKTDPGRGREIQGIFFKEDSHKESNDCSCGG
EPHB1, sequence (P54762 whole entry, looked up): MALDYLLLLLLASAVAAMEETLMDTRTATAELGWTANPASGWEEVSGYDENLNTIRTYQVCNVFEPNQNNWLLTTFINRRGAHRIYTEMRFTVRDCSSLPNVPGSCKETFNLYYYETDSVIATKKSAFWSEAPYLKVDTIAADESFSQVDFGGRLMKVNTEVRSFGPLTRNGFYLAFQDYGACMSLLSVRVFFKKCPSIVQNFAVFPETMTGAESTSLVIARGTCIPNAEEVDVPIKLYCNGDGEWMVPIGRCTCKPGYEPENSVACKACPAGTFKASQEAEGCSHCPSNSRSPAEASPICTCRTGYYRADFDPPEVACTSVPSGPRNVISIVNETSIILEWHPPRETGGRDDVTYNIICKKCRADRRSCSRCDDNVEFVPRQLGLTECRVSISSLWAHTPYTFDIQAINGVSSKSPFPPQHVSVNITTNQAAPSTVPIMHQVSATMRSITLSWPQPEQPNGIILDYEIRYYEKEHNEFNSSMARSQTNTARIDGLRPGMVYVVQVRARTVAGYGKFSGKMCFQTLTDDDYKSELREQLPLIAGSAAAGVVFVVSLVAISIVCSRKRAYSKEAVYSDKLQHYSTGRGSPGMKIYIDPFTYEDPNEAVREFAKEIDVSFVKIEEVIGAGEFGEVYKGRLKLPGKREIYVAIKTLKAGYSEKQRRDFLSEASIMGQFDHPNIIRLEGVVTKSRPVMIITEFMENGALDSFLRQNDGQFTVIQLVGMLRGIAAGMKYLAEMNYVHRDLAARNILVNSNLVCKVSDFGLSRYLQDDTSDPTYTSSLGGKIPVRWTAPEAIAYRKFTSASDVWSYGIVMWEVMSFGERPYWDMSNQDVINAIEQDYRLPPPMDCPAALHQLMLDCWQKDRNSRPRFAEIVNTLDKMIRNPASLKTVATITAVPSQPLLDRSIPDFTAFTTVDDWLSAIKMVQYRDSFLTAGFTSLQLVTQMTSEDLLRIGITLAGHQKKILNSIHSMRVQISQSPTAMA
MERTK, sequence (Q12866 whole entry, looked up): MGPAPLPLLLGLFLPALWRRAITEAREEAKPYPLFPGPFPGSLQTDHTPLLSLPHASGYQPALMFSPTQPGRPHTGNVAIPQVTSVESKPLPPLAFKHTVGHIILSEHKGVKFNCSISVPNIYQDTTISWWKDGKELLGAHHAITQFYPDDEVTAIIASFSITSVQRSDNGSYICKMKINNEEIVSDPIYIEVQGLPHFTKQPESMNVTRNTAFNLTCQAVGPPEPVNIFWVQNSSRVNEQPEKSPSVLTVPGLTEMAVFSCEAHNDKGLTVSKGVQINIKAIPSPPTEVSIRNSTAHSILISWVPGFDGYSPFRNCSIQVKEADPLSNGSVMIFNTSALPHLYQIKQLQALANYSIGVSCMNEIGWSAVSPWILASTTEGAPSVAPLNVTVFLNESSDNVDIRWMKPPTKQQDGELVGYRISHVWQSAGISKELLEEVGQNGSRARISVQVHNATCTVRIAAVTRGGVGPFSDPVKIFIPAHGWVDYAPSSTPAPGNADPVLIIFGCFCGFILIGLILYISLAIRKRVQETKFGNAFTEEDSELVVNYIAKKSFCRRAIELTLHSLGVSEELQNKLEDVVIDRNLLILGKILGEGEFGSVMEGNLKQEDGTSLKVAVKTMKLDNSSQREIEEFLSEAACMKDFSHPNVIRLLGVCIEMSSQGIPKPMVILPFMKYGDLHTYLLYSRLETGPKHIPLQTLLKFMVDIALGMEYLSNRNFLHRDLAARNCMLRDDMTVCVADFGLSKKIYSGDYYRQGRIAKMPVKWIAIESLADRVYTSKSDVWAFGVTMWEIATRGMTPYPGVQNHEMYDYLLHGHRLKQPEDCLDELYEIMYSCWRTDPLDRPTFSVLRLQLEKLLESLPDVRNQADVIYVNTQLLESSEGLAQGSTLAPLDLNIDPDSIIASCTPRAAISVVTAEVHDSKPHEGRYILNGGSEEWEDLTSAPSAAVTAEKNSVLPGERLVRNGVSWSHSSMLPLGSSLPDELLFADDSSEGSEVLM

| SH2 binding enrichment (Grb2 SH2) | SH2 binding enrichment (SHP2-C SH2) | SH2 binding enrichment (c-Src SH2) | Sequence | phosphorylation enrichment (AncSZ) | phosphorylation enrichment (EPHB1) | phosphorylation enrichment (EPHB2) | phosphorylation enrichment (FGFR1) | phosphorylation enrichment (FGFR3) | phosphorylation enrichment (Fer (mouse)) | phosphorylation enrichment (Fes) | phosphorylation enrichment (Fyn) | phosphorylation enrichment (Hck) | phosphorylation enrichment (Jak2) | phosphorylation enrichment (MERTK) | phosphorylation enrichment (c-Abl (mouse)) | phosphorylation enrichment (c-Src) |
| --- | --- | --- | --- | --- | --- | --- | --- | --- | --- | --- | --- | --- | --- | --- | --- | --- |
| 0.581 | 0.557 | 0.349 | SKNSKYNAGST [PSEN1_Y315_E318G] | 0.535 | 0.307 | 0.654 | 0.358 | 0.439 | 0.436 | 0.776 | 0.59 | 0.442 | 0.608 | 0.536 | 0.677 | 0.737 |
| 0.903 | 0.946 | 0.584 | AACQHYGVHTC [NR4A2_Y275_R278H] | 0.624 | 0.445 | 0.471 | 0.413 | 0.585 | 0.347 | 0.63 | 0.433 | 0.443 | 0.432 | 0.406 | 0.534 | 0.345 |
| 0.751 | 0.654 | 0.477 | FADIAYNYHHG [PAH_Y166_R169H] | 0.643 | 0.387 | 0.385 | 0.433 | 0.525 | 0.443 | 0.803 | 0.469 | 0.494 | 0.567 | 0.462 | 0.415 | 0.638 |
| 0.567 | 0.406 | 0.314 | RDWSLYFKIIE [KRT18_Y129_H128L] | 1.66 | 0.799 | 0.576 | 0.395 | 0.841 | 0.464 | 1.56 | 0.447 | 0.356 | 1.09 | 0.327 | 0.4 | 0.354 |
| 0.762 | 0.889 | 0.466 | TGDFGYRTPGY [TNS2_Y668_A670T] | 0.524 | 0.4 | 0.423 | 0.404 | 0.465 | 0.342 | 0.651 | 0.479 | 0.394 | 0.484 | 0.481 | 0.459 | 0.432 |
| 0.879 | 1.25 | 1.55 | FLAVGYHQPHI [IDS_Y225_K227Q] | 0.559 | 0.448 | 0.415 | 0.391 | 0.514 | 0.35 | 0.593 | 0.418 | 0.405 | 0.447 | 0.298 | 0.57 | 0.297 |
| 1.26 | 0.817 | 0.671 | PQIVKYRPDCI [LDHB_Y128_S129R] | 0.89 | 0.627 | 0.131 | 0.302 | 0.537 | 0.12 | 0.839 | 0.699 | 0.238 | 0.391 | 0.133 | 0.069 | 0.663 |
| 0.667 | 0.524 | 0.455 | GGYTWYCDGKK [PROS1_Y266_C265W] | 1.1 | 0.641 | 0.537 | 0.455 | 0.795 | 0.524 | 1.24 | 0.362 | 0.414 | 1.47 | 0.359 | 0.882 | 0.399 |
| 0.692 | 0.573 | 7.93 | AGDGRYEVLFL [SEMA3F_Y478_A474G] | 0.94 | 0.658 | 0.667 | 0.533 | 0.786 | 4.36 | 1.02 | 0.455 | 0.772 | 0.927 | 1.08 | 0.758 | 0.545 |
| 0.647 | 0.724 | 0.494 | MDYRSYPHEYG [RBM10_Y44_R46H] | 0.832 | 0.542 | 0.551 | 0.602 | 0.632 | 0.404 | 0.854 | 0.419 | 0.484 | 0.682 | 0.486 | 0.561 | 0.518 |
| 0.532 | 0.531 | 0.389 | RRIHRYRGHLW [VHL_Y112_S111R] | 0.563 | 0.507 | 0.445 | 0.43 | 0.452 | 0.376 | 0.524 | 0.468 | 0.462 | 0.375 | 0.575 | 0.382 | 0.49 |
| 0.823 | 0.473 | 0.725 | FYDANYDGKEY [MAPRE2_Y162] | 1.22 | 0.63 | 1.23 | 0.699 | 0.796 | 0.627 | 1.37 | 0.642 | 0.83 | 1.14 | 1.17 | 0.712 | 0.941 |
| 0.851 | 0.846 | 0.575 | HRAVEYLLTGI [RAD23A_Y197] | 0.991 | 0.846 | 0.636 | 0.8 | 0.817 | 0.488 | 1.02 | 0.739 | 0.7 | 0.736 | 0.549 | 0.709 | 0.458 |
| 1.07 | 1.12 | 0.759 | PYRFIYMAVQH [PTPN11_Y515_Q510P] | 1.92 | 3.56 | 2.45 | 1.87 | 1.76 | 2.9 | 2.08 | 5.01 | 5.48 | 1.08 | 2.14 | 1.67 | 3.36 |
| 0.807 | 0.658 | 0.603 | VECRVYAEDPY [PCCA_Y401] | 1.47 | 0.908 | 0.794 | 0.619 | 1.13 | 0.708 | 1.73 | 0.612 | 0.686 | 1.26 | 0.56 | 1.28 | 0.75 |
| 0.827 | 1.63 | 1.9 | ELQGTYTSLQQ [KIF3C_Y574_R571Q] | 0.984 | 0.638 | 0.862 | 0.63 | 0.595 | 0.592 | 0.995 | 2.63 | 1.74 | 0.867 | 0.641 | 0.768 | 3.34 |
| 0.796 | 0.522 | 0.45 | ETKAFYPEEIS [HSPA1A_Y115] | 1.08 | 0.52 | 0.747 | 0.521 | 0.687 | 0.537 | 0.919 | 0.414 | 0.506 | 1.16 | 0.408 | 0.584 | 0.511 |
| 0.822 | 0.745 | 0.466 | FRVAGYETQGG [TIA1_Y383_YF] | 0.68 | 0.428 | 0.41 | 0.449 | 0.553 | 0.43 | 0.897 | 0.409 | 0.46 | 0.722 | 0.437 | 0.64 | 0.463 |
| 0.758 | 1.1 | 4.1 | RPSELYYSKIG [SMG1_Y2253] | 1.08 | 1.79 | 0.88 | 3.1 | 1.84 | 1.59 | 1.23 | 1.69 | 11.3 | 1.06 | 20.1 | 1.01 | 5.63 |
| 0.727 | 1 | 1.79 | FDCGMYSHLQG [LGR4_Y848_YF] | 1.37 | 1.08 | 0.969 | 0.89 | 1 | 1.64 | 1.31 | 0.985 | 3.54 | 1.18 | 4.74 | 1.07 | 3.25 |

The next lines start with the sequence.

| Sequence | SH2 binding enrichment (Grb2 SH2) | SH2 binding enrichment (SHP2-C SH2) | SH2 binding enrichment (c-Src SH2) | phosphorylation enrichment (AncSZ) | phosphorylation enrichment (EPHB1) | phosphorylation enrichment (EPHB2) | phosphorylation enrichment (FGFR1) | phosphorylation enrichment (FGFR3) | phosphorylation enrichment (Fer (mouse)) | phosphorylation enrichment (Fes) | phosphorylation enrichment (Fyn) | phosphorylation enrichment (Hck) | phosphorylation enrichment (Jak2) | phosphorylation enrichment (MERTK) | phosphorylation enrichment (c-Abl (mouse)) | phosphorylation enrichment (c-Src) |
| --- | --- | --- | --- | --- | --- | --- | --- | --- | --- | --- | --- | --- | --- | --- | --- | --- |
| FASVEYQEALS [GALNS_Y461_A459V] | 0.917 | 0.723 | 0.576 | 1.01 | 0.621 | 0.588 | 0.484 | 0.631 | 0.47 | 0.997 | 0.615 | 0.471 | 0.876 | 0.416 | 0.738 | 0.442 |
| WNDLDYMDSRR [GAA_Y407] | 0.936 | 0.622 | 0.553 | 1.34 | 0.698 | 0.532 | 0.59 | 0.674 | 0.427 | 1.26 | 0.451 | 0.471 | 1.4 | 0.371 | 0.864 | 0.646 |
| PADCRYFAFPQ [GAMT_Y222_YF] | 0.818 | 1.18 | 1.26 | 1.35 | 1.29 | 0.959 | 2.35 | 1.78 | 0.636 | 0.99 | 0.817 | 0.733 | 2.66 | 5.65 | 0.752 | 1.43 |
| QPEDIYHQTWA [GBA_Y244_G241E] | 1.09 | 0.93 | 0.61 | 2 | 0.843 | 0.673 | 6.95 | 4.93 | 3.02 | 1.09 | 7.34 | 4.47 | 0.955 | 3.42 | 9.69 | 5.92 |
| LGQRIYQYIRS [DYRK1B_Y271_Q275R] | 1.14 | 1.51 | 3.25 | 1.42 | 11.1 | 3.2 | 1.54 | 0.959 | 4.1 | 1.56 | 1.65 | 5.58 | 1.98 | 7.5 | 2.38 | 3.09 |
| AALLNYKAGRD [GRIN2A_Y737_V734L] | 0.861 | 0.762 | 0.523 | 0.623 | 0.409 | 0.465 | 0.508 | 0.494 | 0.384 | 0.687 | 0.494 | 0.527 | 0.508 | 0.468 | 0.454 | 0.472 |
| AHAGEYGAVAL [HBA1_Y25_E28V] | 0.88 | 0.6 | 0.486 | 0.598 | 0.346 | 0.582 | 0.421 | 0.509 | 0.672 | 0.594 | 5.54 | 3.27 | 0.511 | 0.389 | 0.517 | 2.95 |
| ERFAFYRDSPR [FOXE3_Y108] | 0.774 | 0.751 | 0.522 | 0.889 | 0.456 | 0.51 | 0.474 | 0.566 | 0.404 | 0.785 | 0.49 | 0.523 | 0.835 | 0.489 | 0.625 | 0.587 |
| SRGRQYQELPR [KCNH2_Y1009] | 0.925 | 0.565 | 1.29 | 0.512 | 0.316 | 0.347 | 0.4 | 0.423 | 0.349 | 0.462 | 0.317 | 0.527 | 0.455 | 0.36 | 0.463 | 0.441 |
| ISDDNYGRIRL [ARCN1_Y310_K309N] | 1 | 0.77 | 0.518 | 0.554 | 0.521 | 1.21 | 0.407 | 0.428 | 1.32 | 0.516 | 0.704 | 1.83 | 0.525 | 0.344 | 0.402 | 0.885 |
| VTQEQYELHCE [CBL_Y368_Y371H] | 0.656 | 0.48 | 0.571 | 1.2 | 0.708 | 0.601 | 0.542 | 0.874 | 0.736 | 1.35 | 0.576 | 0.479 | 1.1 | 0.37 | 0.791 | 0.52 |
| DQNVEYKGTVS [FHL1_Y117_W122S] | 0.867 | 0.704 | 0.53 | 0.801 | 0.508 | 0.616 | 0.525 | 0.566 | 0.468 | 0.828 | 0.422 | 0.495 | 0.618 | 0.452 | 0.624 | 0.444 |
| FIRRDYEACKA [BBS4_Y48_K46R_YF] | 0.918 | 1.01 | 0.682 | 0.761 | 0.514 | 0.59 | 0.45 | 0.494 | 0.434 | 0.758 | 0.525 | 0.442 | 0.573 | 0.4 | 0.549 | 0.616 |
